Measured values reported in the RNAGym collection of RNA variant scans (doi:10.1073/pnas.2313332121).

B1: TPR t1 (parent)
chain: GACCAAUCUGCCCUCAGAGCUCGAGAACAUCUUCGGAUGCAGAGGAGGCAGGCUUCGGUGGCGCGAUAGCGCCAACGUCCUCAACCUCCAAUGCAUCCCACCACAUGAUGAUGCCUGAAGAGCCUUGGUUUUUUG

Variants of: B1
Assay: polymerase ribozyme fitness, log enrichment relative to wild type (log ratio); higher = more active; in vitro selection for triplet polymerase activity
Procedure, shortened: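 Both subunits of a heterodimeric triplet polymerase ribozyme were given their own mutant library, built by PCR and transcribed. Each library was annealed with a biotinylated primer, the partner subunit and triplets, incubated frozen at −7 °C, and its extended constructs gel-excised, captured on streptavidin beads and amplified by RT-PCR, all in one round done in triplicate. Fitness is the logarithm of genotype enrichment relative to wild-type enrichment, with replicates averaged by inverse-variance weighting. That logarithm is base 2, and Illumina-sequenced genotypes needed ≥10 input reads and ≥1 read per output.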

Variant	polymerase ribozyme fitness (log ratio)
U14C G48U C72G	-2.66
U14G G36U G42C G61A G113A U132A	-5.95
C15A G48C C70U	-3
C15G A29G G39U G69U	-4.2
C13G G58A C70U A105C C124A G127A	-4.77
C13G G36U A37G C80U	-5.7
C13G G39U U54A	-2.59
C13U U78C C115U	1.27
C13U G52U G110U U133C	-1.33
U14A C49G	-2.67
C15A U21A U78A G93U	-2.36
C15A G39C G117A	-1.64
C13U G61C G93U U132C	-2.93
C15A U54G A90U	-3.13
C13U G45C C73U C123A	0.429
C13U A27G	-2.05
C13G C62U	-1.43
C13G C56A G63A	-3.78
C13U A27U C49A U130C U132C	-2.53
U14C G44U	-3.05
C13U A29C G52U C104U G120A U131A	-2.05

Variant	polymerase ribozyme fitness (log ratio)
U14G A43U G63C G71U C88G	-7.34
C13U C56G C62U A74G U96A A100C	-4.8
C13U U126A	-1.64
C13U G117U	-2.13
U14G C53A A84C	-2.21
C13G G120U	-0.586
C13G G120C	0.441
C13U U14C G69U C70U A90G	-2.94
C15A C49U C72A U132A	-1.5
C13U G39U C73A A83U A121U	1.24
C15A C94U	-1.87
C15A A26G G110A G113U	-6
C13U A83G	0.0266
C15A A29G	-2.66
C13U U129A	-0.61
C13G G63C C85G U112A G120C	-1.45
U14A G61A G117A	-4.06
C13G C40U C49A C64A A100C C115U	-6.9
U14G C62U U78C	-2.77
C13U C73U C124U G127A	0.275
U14A U21A U30G G58C U112C A118C	-4.31

Variant	polymerase ribozyme fitness (log ratio)
U14G C49G	-2.23
C15G A37G C62U C76U A118U C124U	-2.37
C13U G17A A43C U59C U132C	-4.55
C15A A16C C72A	-2.92
U14A G63C G113A	-4.74
C13U G110A	-0.303
U14C G63C U112G G113U	-5.75
U14A C34G G71C A91G C124A	-6.51
C15G A29G C64U C76G C99U U112A	-6.38
C13U G39C G63U U125G U133A	-2.15
C13G G60C	-1.52
C13U G48U C73U U130G	-0.119
C13U G57A C102A G127C	-3.71
U14A C70G	-3.97
U14A C56U C73U U112G G120C	-1.15
U14C A16U C88U C101A U129G	-5.73
C13U G51U G61A C88U U106A	-2.6
U14G G60U G61A	-3.09
U14A U106A	-1.9
C13U C34U	-4.26
C15A C70U G93C C124G G128C	-4.17

Variant	polymerase ribozyme fitness (log ratio)
C13U G58A C73U	-0.277
U14C G51U C104U	-4.54
U14A C72U C89A	-3.16
C15G A37U C56U C123A	-1.93
C13U C22G C49U G71C C102U G122A	-5.74
C13U C28A G110C G120A	-1.9
U14G G45A A121U	0.629
U14A A24G G61C C89G A91C C101A U112A G122U U125A	-6.22
C13U A121U	2.03
C13U A121G	2.04
C13U A27U G42U C64G A100C G120C C123G	-7.95
C15A A41C	-3.59
C15A G52U	-3.6
U14G G120C	0.117
C13U C56A U96G	-0.637
U14G G47A C89G C114G U116C G117A U133A	-6.43
C13U A16C G48C U59G G60U A100C A121C	-0.128
C13G G17C	-4.94
U14A G19U U32G U81G A100G G120C	-7.12
C15A G120C U129A	-1.24
C13U U32G U87C	-7.09
